Results published in article PMC9127112, “Opening opportunities for Kd determination and screening of MHC peptide complexes” (Communications Biology, 2022).

Key:
[1] = target: empty disulfide-stabilized HLA-A*02:01(Y84C/A139C) complex of heavy chain and beta-2 microglobulin (human); assay: nanoscale differential scanning f
[2] = target: empty disulfide-stabilized HLA-A*02:01(Y84C/A139C) complex of heavy chain and beta-2 microglobulin (human); assay: native MS
[3] = target: empty disulfide-stabilized HLA-A*02:01(Y84C/A139C) in complex with beta-2 microglobulin (human); assay: isothermal analysis of nanoscale

other [1] [K]	other [2] [%]	Kd [3] [nM]	Binder
6.4	43		GLGGGGGGV [GV9, simplified NV9 derivative that retains the anchor residues L and V]
		360	GLGGGGGGV [GV9 (…), simplified NV9 derivative that retains the anchor residues L and V]
